Assay results: patent publication US20260250388A1 (published 2026)
Values belong to the binder of their own block, whether it stands above or below them.

Key:
[1] = target: HLA-A*11:01 / KRAS G12V 9-mer peptide … complex (human); assay: cell-based or functional assay
[2] = target: HLA-A*11:01 / KRAS G12V 10-mer peptide … complex (human); assay: cell-based or functional assay
[3] = target: T1, KRAS G12V peptide on HLA-A*11:01 (human); assay: CD69 by flow cytometry on TCR1-transduced Jurkat cells; K562-A*11:01 loaded with peptide at 10^-11 to 10^-6 M; FIG. 4C; full-length, on cells
T1 peptide: VVVGAVGVGK
Procedure: (§1) EC₅₀ values of different TCRs were assessed by spot numbers of IFN-γ release and CD69 expression after co-culture of specific TCR-transduced T cells with target cells loaded with graded concentrations of KRAS G12V-9 peptide ([…]) (SEQ ID NO: 91).

[4] = target: T2, KRAS G12V peptide on HLA-A*11:01 (human); assay: as above
T2 peptide: VVGAVGVGK
Procedure: as §1

[5] = target: T2, KRAS G12V peptide on HLA-A*11:01; assay: multimer staining
[6] = target: T1, KRAS G12V peptide on HLA-A*11:01; assay: killing
Source text: A lentiviral vector containing the TCR gene of the present invention was constructed and used to transduce T cells. The T cells transduced with different TCRs were co-cultured with: (1) HLA-A*11:01-expressing K562 cells loaded with different peptides (G12V-9 peptide: […] (SEQ ID NO: 91), G12V-10 peptide: […] (SEQ ID NO: 92), or WT peptide: […] (SEQ ID NO: 93)+[…] (SEQ ID NO: 94)); and (2) BxPC3 cells expressing HLA-A*11:01, co-expressing HLA-A*11:01 and KRAS G12V, or co-expressing HLA-A*11:01 and KRAS G12D (effector cell:target cell=5:1). After co-incubation for 16 h, the killing ability of T cells against target cells was evaluated by detecting LDH release. Statistical data are shown in FIGS. 2A and 2B (GraphPad Prism 8.0.1 software).

B1: TCR1 (TCR)
TCR alpha: SLAKTTQPISMDSYEGQEVNITCSHNNIATNDYITWYQQFPSQGPRFIIQGYKTKVTNEVASLFIPADRKSSTLSLPRVSLSDTAVYYCLVGALSSSWYGQNFVFGPGTRLSVLPYIQNPDPAVYQLRDSKSSDKSVCLFTDFDSQTNVSQSKDSDVYITDKTVLDMRSMDFKSNSAVAWSNKSDFACANAFNNSIIPEDTFFPSPESSCDVKLVEKSFETDTNLNFQNLSVIGFRILLLKVAGFNLLMTLRLWSS
TCR beta: DTAVSQTPKYLVTQMGNDKSIKCEQNLGHDTMYWYKQDSKKFLKIMFSYNNKELIINETVPNRFSPKSPDKAHLNLHINSLELGDSAVYFCASSQSGAQDGYTFGSGTRLTVVEDLNKVFPPEVAVFEPSEAEISHTQKATLVCLATGFFPDHVELSWWVNGKEVHSGVSTDPQPLKEQPALNDSRYCLSSRLRVSATFWQNPRNHFRCQVQFYGLSENDEWTQDRAKPVTQIVSAEAWGRADCGFTSVSYQQGVLSATILYEILLGKATLYAVLVSALVLMAMVKRKDF
EC50 of CD69 expression of TCR-transduced Jurkat cells after co-culture with K562-A*11:01 loaded with graded peptide concentrations (FIG. 4C) [1]: 0.00224 µM
EC50 of CD69 expression of TCR-transduced Jurkat cells after co-culture with K562-A*11:01 loaded with graded peptide concentrations (FIG. 4C) [2]: 0.0313 µM
fold difference of EC50 (CD69 expression) between the 10-mer and the 9-mer peptide [2]: 10 fold

B2: TCR1 (TCR, V domains shown)
Valpha: LAKTTQPISMDSYEGQEVNITCSHNNIATNDYITWYQQFPSQGPRFIIQGYKTKVTNEVASLFIPADRKSSTLSLPRVSLSDTAVYYCLVGALSSSWYGQNFVFGPGTRLSVLP
Vbeta: DTAVSQTPKYLVTQMGNDKSIKCEQNLGHDTMYWYKQDSKKFLKIMFSYNNKELIINETVPNRFSPKSPDKAHLNLHINSLELGDSAVYFCASSQSGAQDGYTFGSGTRLTVV
EC50 of peptide [3]: 0.0313 µM
EC50 of peptide [4]: 0.00224 µM

B3: TCR2 (TCR, V domains shown)
Valpha: DQQVKQNSPSLSVQEGRISILNCDYTNSMFDYFLWYKKYPAEGPTFLISISSIKDKNEDGRFTVFLNKSAKHLSLHIVPSQPGDSAVYFCAAKDNAGNMLTFGGGTRLMVKP
Vbeta: KAGVTQTPRYLIKTRGQQVTLSCSPISGHRSVSWYQQTPGQGLQFLFEYFSETQRNKGNFPGRFSGRQFSNSRSEMNVSTLELGDSALYLCASSLGTAEAFFGQGTRLTVV
binding result [5]: recognises
binding result [6]: recognises

B4: TCR3 (TCR, V domains shown)
Valpha: DQQVKQNSPSLSVQEGRISILNCDYTNSMFDYFLWYKKYPAEGPTFLISISSIKDKNEDGRFTVFLNKSAKHLSLHIVPSQPGDSAVYFCAANSGYALNFGKGTSLLVTP
Vbeta: KAGVTQTPRYLIKTRGQQVTLSCSPISGHRSVSWYQQTPGQGLQFLFEYFSETQRNKGNFPGRFSGRQFSNSRSEMNVSTLELGDSALYLCASSLGGVGNEQFFGPGTRLTVL
binding result [5]: recognises
binding result [6]: recognises

B5: TCR4 (TCR, V domains shown)
Valpha: QKEVEQNSGPLSVPEGAIASLNCTYSDRGSQSFFWYRQYSGKSPELIMFIYSNGDKEDGRFTAQLNKASQYVSLLIRDSQPSDSATYLCAVERGSTLGRLYFGRGTQLTVWP
Vbeta: GAGVSQSPRYKVTKRGQDVTLRCDPISSHATLYWYQQALGQGPEFLTYFNYEAQPDKSGLPSDRFSAERPEGSISTLTIQRTEQRDSAMYRCASSLSSPTGGPINEQFFGPGTRLTVL
binding result [5]: recognises
binding result [6]: recognises

B6: TCR5 (TCR, V domains shown)
Valpha: GEDVEQSLFLSVREGDSSVINCTYTDSSSTYLYWYKQEPGAGLQLLTYIFSNMDMKQDQRLTVLLNKKDKHLSLRIADTQTGDSAIYFCAESPGGGADGLTFGKGTHLIIQP
Vbeta: GAVVSQHPSWVICKSGTSVKIECRSLDFQATTMFWYRQFPKQSLMLMATSNEGSKATYEQGVEKDKFLINHASLTLSTLTVTSAHPEDSSFYICSAPRGWAAGVYGYTFGSGTRLTVV
binding result [5]: recognises
binding result [6]: recognises

More lines, main results first:

binding result [5]: recognises
B7: TCR6 (TCR, V domains shown)
Valpha: AQSVTQPDIHITVSEGASLELRCNYSYGATPYLFWYVQSPGQGLQLLLKYFSGDTLVQGIKGFEAEFKRSQSSFNLRKPSVHWSDAAEYFCAVGASREYGNKLVFGAGTILRVKS
Vbeta: NAGVMQNPRHLVRRRGQEARLRCSPMKGHSHVYWYRQLPEEGLKFMVYLQKENIIDESGMPKERFSAEFPKEGPSILRIQQVVRGDSAAYFCASSPGGLLHFGNGTRLTVT
binding result [6]: recognises

binding result [5]: recognises
B8: TCR7 (TCR, V domains shown)
Valpha: DQQVKQNSPSLSVQEGRISILNCDYTNSMFDYFLWYKKYPAEGPTFLISISSIKDKNEDGRFTVFLNKSAKHLSLHIVPSQPGDSAVYFCAGKTNTGNQFYFGTGTSLTVIP
Vbeta: KAGVTQTPRYLIKTRGQQVTLSCSPISGHRSVSWYQQTPGQGLQFLFEYFSETQRNKGNFPGRFSGRQFSNSRSEMNVSTLELGDSALYLCASSSGHPEAFFGQGTRLTVV
binding result [6]: recognises

binding result [5]: recognises
B9: TCR8 (TCR, V domains shown)
Valpha: SQQGEEDPQALSIQEGENATMNCSYKTSINNLQWYRQNSGRGLVHLILIRSNEREKHSGRLRVTLDTSKKSSSLLITASRAADTASYFCATDAGGGADGLTFGKGTHLIIQP
Vbeta: DSGVTQTPKHLITATGQRVTLRCSPRSGDLSVYWYQQSLDQGLQFLIQYYNGEERAKGNILERFSAQQFPDLHSELNLSSLELGDSALYFCASSESRDSGNTIYFGEGSWLTVV
binding result [6]: recognises

binding result [5]: recognises
B10: TCR9 (TCR, V domains shown)
Valpha: SQQGEEDPQALSIQEGENATMNCSYKTSINNLQWYRQNSGRGLVHLILIRSNEREKHSGRLRVTLDTSKKSSSLLITASRAADTASYFCATDSGGGADGLTFGKGTHLIIQP
Vbeta: DSGVTQTPKHLITATGQRVTLRCSPRSGDLSVYWYQQSLDQGLQFLIQYYNGEERAKGNILERFSAQQFPDLHSELNLSSLELGDSALYFCASTPGRDSGNTIYFGEGSWLTVV
binding result [6]: recognises
